# T1: RAG1 nonamer binding domain (NBD) (UniProt P15919 389-456)
# T1 sequence: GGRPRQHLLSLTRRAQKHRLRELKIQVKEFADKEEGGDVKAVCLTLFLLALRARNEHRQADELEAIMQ
# Tests used:
# [1] = target: T1, RAG1 nonamer binding domain (NBD); experiment: EMSA; RAG EMSA: 22.5 mM MOPS-KOH pH 7.0, 20% DMSO, 2.2 mM DTT, 50 mM K-glutamate, 2% glycerol, 100 ng/ml BSA, 2 h, 25 C; NBD EMSA as in earlier work; BLI: SAX sensors, NBD 0.36-2.22 nM, 1:1 fit, buffer not stated; details: protein: recombinant, tags: His (pET28a, Ni-NTA), chain copies: 2, T/G mismatch
# [2] = target: T1, RAG1 nonamer binding domain (NBD); experiment: BLI; RAG EMSA: 22.5 mM MOPS-KOH pH 7.0, 20% DMSO, 2.2 mM DTT, 50 mM K-glutamate, 2% glycerol, 100 ng/ml BSA, 2 h, 25 C; NBD EMSA as in earlier work; BLI: SAX sensors, NBD 0.36-2.22 nM, 1:1 fit, buffer not stated; details: protein: recombinant, tags: His (pET28a, Ni-NTA), chain copies: 2, biotin (BLI)
binder,measurement,setting,value
MTCIII (NM90/NM91) (dsDNA) DNA 1: TCACGCCAATGGCAGTGCCAGGTGTTCAGGGAGCTCTTGCGTTCAAACCACGA DNA 2: TCGTGGTTTGAACGCAAGAGCTCCCTGAACACCTGGCGCTGCCATTGGCGTGA,binding result,[1]; label: 5'-32P on NM90,binds
KI (AP66/AP67) (dsDNA) DNA 1: GAAAAAAGTGGCTCCCTGCCCAAGTATCCCTGTAAAACAAAAACCAAAAG DNA 2: CTTTTGGTTTTTGTTTTACAGGGATACTTGGGCGGGGAGCCACTTTTTTC,Kd,"[2]; label: 5'-32P on AP66 (EMSA), T/G mismatch",0.36 nM
FI (HK5/HK6) (dsDNA) DNA 1: GGCCCTGCTTGACTGTGTCACAACCCCATCCAGTGGCCCTGAACTTGG DNA 2: CCAAGTTCAGGGCCACTGGATGGGGTTGTGACGCAGTCAAGCAGGGCC,Kd,"[2]; label: 5'-32P on HK5 (EMSA), T/G mismatch",0.69 nM
12RSS (AKN1/AKN2) (dsDNA) DNA 1: GATCAGCTGATAGCTACCACAGTGCTACAGACTGGAACAAAAACCCTGCT DNA 2: TAGCAGGGTTTTTGTTCCAGTCTGTAGCACTGTGGTAGCTATCAGCTGAT,Kd,[2]; label: 5'-32P on AKN1 (EMSA),0.7 nM
MTCIV (NM92/NM93) (dsDNA) DNA 1: GGAGGGGCTTCCCCTTGTTCACGCCAATGGCAGCGCCAGGTGTTCAGGGAGCTCTTGCGTTCAAACCACGA DNA 2: TCGTGGTTTGAACGCAAGAGCTCCCTGAACACCTGGCGCTGCCATTGGCGTGAACGAGGGGAAGCCCCTCC,binding result,[1]; label: 5'-32P on NM92,binds
MTCII (NM88/NM89) (dsDNA) DNA 1: TGCCATTGGCGTGAATGAGGGGAAGCCCCTCCTGACAGCTGGATGGTAGGACAAAGCCCTCTA DNA 2: TAGAGGGCTTTGTCCTACCATCCAGCTGTCAGGAGGGGCTTCCCCTCGTTCACGCCAATGGCA,binding result,[1]; label: 5'-32P on NM88,binds
MTCI (NM50/NM51) (dsDNA) DNA 1: TTCAGGGAGCTCTTGTGTTCAAACCACGAAGAAGACGCAGTTTAATCTCA DNA 2: TGAGATTAAACTGCGTCTTCTTCGTGGTTTGAACGCAAGAGCTCCCTGAA,binding result,[1]; label: 5'-32P on NM50,binds
